# *1 amine or outer side, *2 acyl side, *3 side chain or, on linkers, in order; H or OH if unused. Bridges are numbered along the chain shown (N, C = ends). Where no end group is shown, it is not given here. [ ]: non-standard residue; d: D form. NMeSer(Bzl) = N-methyl-O-benzyl-serine, CN([C@@H](COCc1ccccc1)C(=O)[*:2])[*:1]; Phe(4-NO2) = N[C@@H](Cc1ccc([N+](=O)[O-])cc1)C(=O)O; Phe(3,4-Cl2) = N[C@@H](Cc1ccc(Cl)c(Cl)c1)C(=O)O; DiPhAla = diphenylalanine (source's own name); Ser(Bzl) = O=C([C@H](COCc1ccccc1)N[*:1])[*:2]; Phe(4-Cl) = N[C@@H](Cc1ccc(Cl)cc1)C(=O)O; 1Nal = N[C@@H](Cc1cccc2ccccc12)C(=O)O; 2Nal = N[C@@H](Cc1ccc2ccccc2c1)C(=O)O; hPhe = N[C@@H](CCc1ccccc1)C(=O)O; 2Thi = N[C@@H](Cc1cccs1)C(=O)O; Cha = N[C@@H](CC1CCCCC1)C(=O)O; Phg = N[C@H](C(=O)O)c1ccccc1; Tle = CC(C)(C)[C@H](N)C(=O)O; NMeV = CN[C@H](C(=O)O)C(C)C; NMeA = CN[C@@H](C)C(=O)O; Nle = CCCC[C@H](N)C(=O)O; Nva = CCC[C@H](N)C(=O)O; Abu = CC[C@H](N)C(=O)O; Aib = CC(C)(N)C(=O)O; Sar = CNCC(=O)O
# B1: SEQ ID NO:12 cyclized, F - (DiPh - Ala) (peptide)
# peptide: CADGPTLREWIS[DiPhAla]C
# modifications: disulfide 1-14 (inferred); not fully specified
# B2: [drawing CHEM-US-00042] (SEQ ID NO:192)(SEQ ID NO:192) (peptide)
# peptide: TLREWISFC
# modifications: also: further groups not given here
# B3: [drawing CHEM-US-00027] / [drawing CHEM-US-00028] (SEQ ID NO:173) (peptide)
# peptide: ADGPTLREWISFC
# modifications: also: further groups not given here
# B4: SEQ ID NO:12 cyclized, S - Aib (peptide)
# peptide: CADGPTLREWI[Aib]FC
# modifications: disulfide 1-14 (inferred); not fully specified
# B5: [drawing CHEM-US-00038] (SEQ ID NO:190)(SEQ ID NO:190) (peptide)
# peptide: GPTLREWISFC
# modifications: not fully specified; also: further groups not given here
# B6: SEQ ID NO:12 cyclized, F - CHA (peptide)
# peptide: CADGPTLREWIS[Cha]C
# modifications: disulfide 1-14 (inferred); not fully specified
# B7: SEQ ID NO:12 cyclized, S - (Nor-Leu) (peptide)
# peptide: CADGPTLREWI[Nle]FC
# modifications: disulfide 1-14 (inferred); not fully specified
# B8: SEQ ID NO:12 cyclized, F - (p-Nitrophe) (peptide)
# peptide: CADGPTLREWIS[Phe(4-NO2)]C
# modifications: disulfide 1-14 (inferred); not fully specified
# B9: [drawing CHEM-US-00036] (SEQ ID NO:173)(SEQ ID NO:173) (peptide)
# peptide: ADGPTLREWISFC
# modifications: also: further groups not given here
# B10: [drawing CHEM-US-00040] (SEQ ID NO:191)(SEQ ID NO:191) (peptide)
# peptide: PTLREWISFC
# modifications: not fully specified; also: further groups not given here
# B11: SEQ ID NO:12 cyclized, S - [N-Me-Ser(Bzl)] (peptide)
# peptide: CADGPTLREWI[NMeSer(Bzl)]FC
# modifications: disulfide 1-14 (inferred); not fully specified
# B12: SEQ ID NO:12 cyclized, S - Sar (peptide)
# peptide: CADGPTLREWI[Sar]FC
# modifications: disulfide 1-14 (inferred); not fully specified
# B13: SEQ ID NO:12 cyclized, F - (2-Nal) (peptide)
# peptide: CADGPTLREWIS[2Nal]C
# modifications: disulfide 1-14 (inferred); not fully specified
# B14: [drawing CHEM-US-00006] (SEQ ID NO:173) (peptide)
# peptide: ADGPTLREWISFC
# modifications: not fully specified; also: further groups not given here
# B15: SEQ ID NO:12 cyclized, F - Homo-Phe (peptide)
# peptide: CADGPTLREWIS[hPhe]C
# modifications: disulfide 1-14 (inferred); not fully specified
# B16: SEQ ID NO:12 cyclized, S - Abu (peptide)
# peptide: CADGPTLREWI[Abu]FC
# modifications: disulfide 1-14 (inferred); not fully specified
# B17: [drawing CHEM-US-00039] (SEQ ID NO:190)(SEQ ID NO:190) (peptide)
# peptide: GPTLREWISFC
# modifications: not fully specified; also: further groups not given here
# B18: SEQ ID NO:12 cyclized, F - (p-Cl-Phe) (peptide)
# peptide: CADGPTLREWIS[Phe(4-Cl)]C
# modifications: disulfide 1-14 (inferred); not fully specified
# B19: SEQ ID NO:12 cyclized, F - (1-Nal) (peptide)
# peptide: CADGPTLREWIS[1Nal]C
# modifications: disulfide 1-14 (inferred); not fully specified
# B20: [drawing CHEM-US-00043] (SEQ ID NO:192)(SEQ ID NO:192) (peptide)
# peptide: TLREWISFC
# modifications: also: further groups not given here
# B21: SEQ ID NO:12 cyclized, S - (t-Bu-Gly) (peptide)
# peptide: CADGPTLREWI[Tle]FC
# modifications: disulfide 1-14 (inferred); not fully specified
# B22: SEQ ID NO:12 cyclized, F - (Pyridylala) (peptide)
# peptide: CADGPTLREWIS[Pyridylala]C
# modifications: not fully specified (bridges); also: cyclized, type not given here
# B23: [drawing CHEM-US-00035] (SEQ ID NO:173)(SEQ ID NO:173) (peptide)
# peptide: ADGPTLREWISFC
# modifications: also: further groups not given here
# B24: SEQ ID NO:12 cyclized, S - Nva (peptide)
# peptide: CADGPTLREWI[Nva]FC
# modifications: disulfide 1-14 (inferred); not fully specified
# B25: SEQ ID NO:12 cyclized, S - (N-Me-Ala) (peptide)
# peptide: CADGPTLREWI[NMeA]FC
# modifications: disulfide 1-14 (inferred); not fully specified
# B26: [drawing CHEM-US-00041] (SEQ ID NO:191)(SEQ ID NO:191) (peptide)
# peptide: PTLREWISFC
# modifications: not fully specified; also: further groups not given here
# B27: SEQ ID NO:12 cyclized, F - Thi (peptide)
# peptide: CADGPTLREWIS[2Thi]C
# modifications: disulfide 1-14 (inferred); not fully specified
# B28: SEQ ID NO:12 cyclized, S - (N-Me-Val) (peptide)
# peptide: CADGPTLREWI[NMeV]FC
# modifications: disulfide 1-14 (inferred); not fully specified
# B29: SEQ ID NO:12 cyclized, F - (Phenylgly) (peptide)
# peptide: CADGPTLREWIS[Phg]C
# modifications: disulfide 1-14 (inferred); not fully specified
# B30: SEQ ID NO:12 cyclized, F - (3,4-di-Cl-Phe) (peptide)
# peptide: CADGPTLREWIS[Phe(3,4-Cl2)]C
# modifications: disulfide 1-14 (inferred); not fully specified
# B31: SEQ ID NO:12 cyclized, F - (N-Me-Ala) (peptide)
# peptide: CADGPTLREWIS[NMeA]C
# modifications: disulfide 1-14 (inferred); not fully specified
# B32: SEQ ID NO:12 cyclized, F - (Ser(Bzl)) (peptide)
# peptide: CADGPTLREWIS[Ser(Bzl)]C
# modifications: disulfide 1-14 (inferred); not fully specified
# B33: [drawing CHEM-US-00013] (SEQ ID NO:173) (peptide)
# peptide: ADGPTLREWISFC
# modifications: not fully specified; also: further groups not given here
# Target: soluble TPO-R (UniProt P40238)
# Test: competition ELISA vs MBP-TPO156
# Chain of soluble TPO-R (P40238 26-491): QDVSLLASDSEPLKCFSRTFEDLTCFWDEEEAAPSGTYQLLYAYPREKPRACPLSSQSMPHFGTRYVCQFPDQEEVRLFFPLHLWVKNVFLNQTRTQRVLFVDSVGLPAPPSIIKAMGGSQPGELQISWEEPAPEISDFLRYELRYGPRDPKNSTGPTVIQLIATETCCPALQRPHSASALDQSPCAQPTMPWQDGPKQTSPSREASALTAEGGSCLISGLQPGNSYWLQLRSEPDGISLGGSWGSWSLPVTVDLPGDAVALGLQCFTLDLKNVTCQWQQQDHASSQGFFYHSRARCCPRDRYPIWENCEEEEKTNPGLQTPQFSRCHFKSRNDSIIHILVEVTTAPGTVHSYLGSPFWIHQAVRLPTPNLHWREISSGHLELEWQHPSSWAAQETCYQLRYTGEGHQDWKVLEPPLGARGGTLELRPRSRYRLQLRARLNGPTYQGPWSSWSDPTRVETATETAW
row,IC50 [nM],Binder
1,< 500,B1
2,200000,B2
3,< 500,B3
4,< 500,B4
5,< 500,B5
6,< 500,B6
7,< 500,B7
8,< 500,B8
9,< 500,B9
10,< 500,B10
11,< 200000,B11
12,< 500,B12
13,< 500,B13
14,200000,B14
15,< 500,B15
16,< 500,B16
17,< 200000,B17

row,IC50 [nM],Binder
1,< 500,B18
2,< 500,B19
3,200000,B20
4,< 500,B21
5,< 500,B22
6,< 500,B23
7,< 500,B24
8,< 200000,B25
9,200000,B26
10,< 500,B27
11,200000,B28
12,< 500,B29
13,< 500,B30
14,200000,B31
15,< 500,B32
16,< 500,B33
